What is called Kd is the concentration at which binding is half-saturated.

Results on two substances are retold here after publication PMC5815094.

Common to all, as to details: ES buffer: 10 mM Tris pH 8.0, 10 mM KCl, 40 mM NaCl, 1 mM MgCl2; MST + 0.05% Tween-20, room temperature; EMSA + 25 ng tRNA per 10 ul, 37 C 15 min (Fig 6D); NMR …
(A gel shift assay detects complexes by their altered migration in electrophoresis.)

The target in series [1] is Hfq (Pseudomonas aeruginosa PAO1) (UniProt Q9HUM0). Briefly: EMSA.
Series [2] addresses Hfq;Crc (Pseudomonas aeruginosa PAO1;Pseudomonas aeruginosa PAO1) (UniProt Q9HUM0+Q51380). The series can be described thus: MST.
For series [3], the target named is Hfq (Pseudomonas aeruginosa PAO1) (UniProt Q9HUM0). The series can be described thus: MST.

Take “GGACUGGUCGCGAGGCCAGCAGGUAAGCUGAGAGACCAAGCAGUCGGACUCUUCAGAUUAUCUCCUCAUCAGGCUAAUCACGGUUUCGACCCGGCACUUUGCCGGGUCUUUUUUUG [PrrF2 sRNA]”: in series [1], the binding result was “binds”. Take PrrF2 sRNA: the figures for the dissociation constant (Kd) in series [2] and in series [3] were 35 nM and 6.7 nM, respectively.
